Source: patent publication US9176064B2, “Bisubstrate fluorescent probes for protein kinase CK2” (University of Tartu, priority 2012, dated 2015)
Where a SMILES comes first, the peptide text is derived from it. [ ]: non-standard residue; d: D form. The star is where a group is joined. X1 = O=C(CCCCCCCn1cnc2c(Br)c(Br)c(Br)c(Br)c21)*

Assays:
Experiment in all cases: Kinase panel residual activity
Format in all cases: biochemical
Conditions in all cases: compound at 1 micromolar
IKKb = biological target: T1, IKKb (Homo sapiens, UniProt O14920)
T1 sequence (O14920 1-756): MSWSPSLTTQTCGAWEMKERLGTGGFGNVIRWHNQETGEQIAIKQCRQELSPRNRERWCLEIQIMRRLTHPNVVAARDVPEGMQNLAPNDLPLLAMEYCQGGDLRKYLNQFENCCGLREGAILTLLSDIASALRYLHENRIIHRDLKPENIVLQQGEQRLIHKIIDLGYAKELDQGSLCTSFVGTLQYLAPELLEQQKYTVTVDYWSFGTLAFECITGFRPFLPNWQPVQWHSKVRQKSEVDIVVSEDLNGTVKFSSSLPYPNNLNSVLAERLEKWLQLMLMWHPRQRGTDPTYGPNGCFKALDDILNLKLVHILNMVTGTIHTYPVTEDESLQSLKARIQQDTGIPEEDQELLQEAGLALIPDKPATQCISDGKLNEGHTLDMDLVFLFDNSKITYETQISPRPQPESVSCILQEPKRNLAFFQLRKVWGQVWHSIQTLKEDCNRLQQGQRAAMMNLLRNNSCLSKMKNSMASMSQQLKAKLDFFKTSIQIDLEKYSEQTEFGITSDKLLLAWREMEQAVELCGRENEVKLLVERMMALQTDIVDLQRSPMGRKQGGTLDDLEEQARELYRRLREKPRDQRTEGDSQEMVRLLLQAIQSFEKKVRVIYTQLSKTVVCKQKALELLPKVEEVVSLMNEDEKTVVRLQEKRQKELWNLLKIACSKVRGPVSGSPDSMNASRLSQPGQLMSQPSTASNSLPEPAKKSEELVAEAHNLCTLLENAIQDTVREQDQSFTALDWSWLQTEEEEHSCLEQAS

PKCz = biological target: T2, PKCz (Homo sapiens, UniProt Q05513)
T2 sequence (Q05513 1-592): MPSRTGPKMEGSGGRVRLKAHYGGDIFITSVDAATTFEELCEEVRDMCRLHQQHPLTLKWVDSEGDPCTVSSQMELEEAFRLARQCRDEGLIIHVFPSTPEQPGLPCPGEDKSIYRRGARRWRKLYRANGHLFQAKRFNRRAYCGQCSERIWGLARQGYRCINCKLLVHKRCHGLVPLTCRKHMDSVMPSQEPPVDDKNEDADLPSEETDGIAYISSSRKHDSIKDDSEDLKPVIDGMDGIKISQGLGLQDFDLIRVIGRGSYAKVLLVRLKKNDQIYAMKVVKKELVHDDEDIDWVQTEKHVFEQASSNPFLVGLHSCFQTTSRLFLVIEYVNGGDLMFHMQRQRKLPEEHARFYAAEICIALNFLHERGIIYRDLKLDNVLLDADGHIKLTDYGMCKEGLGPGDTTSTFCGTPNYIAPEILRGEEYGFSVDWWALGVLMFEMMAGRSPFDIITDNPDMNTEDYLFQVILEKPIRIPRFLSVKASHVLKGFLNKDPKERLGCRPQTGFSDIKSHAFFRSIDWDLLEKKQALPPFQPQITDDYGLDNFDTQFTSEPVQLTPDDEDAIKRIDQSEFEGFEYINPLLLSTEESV

EPH-A4 = EPH-A4 (Homo sapiens, UniProt P54764)
DYRK3 = biological target: T3, DYRK3 (Homo sapiens, UniProt O43781)
T3 sequence (O43781 1-588): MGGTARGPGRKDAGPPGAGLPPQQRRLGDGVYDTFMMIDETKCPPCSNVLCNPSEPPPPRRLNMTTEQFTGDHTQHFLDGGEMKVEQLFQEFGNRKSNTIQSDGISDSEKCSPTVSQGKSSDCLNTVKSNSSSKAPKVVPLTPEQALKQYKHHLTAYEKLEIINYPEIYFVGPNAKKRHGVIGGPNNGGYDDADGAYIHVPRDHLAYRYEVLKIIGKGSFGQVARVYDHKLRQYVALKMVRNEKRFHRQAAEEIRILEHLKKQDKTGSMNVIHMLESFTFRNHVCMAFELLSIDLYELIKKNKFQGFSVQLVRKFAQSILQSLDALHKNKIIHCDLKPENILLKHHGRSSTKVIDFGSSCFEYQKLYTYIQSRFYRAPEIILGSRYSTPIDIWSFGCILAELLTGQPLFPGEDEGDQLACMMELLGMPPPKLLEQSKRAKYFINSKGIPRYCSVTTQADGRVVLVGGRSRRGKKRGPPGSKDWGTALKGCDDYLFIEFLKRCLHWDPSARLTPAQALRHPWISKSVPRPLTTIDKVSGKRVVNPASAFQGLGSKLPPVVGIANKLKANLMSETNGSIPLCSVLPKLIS

IRAK4 = biological target: T4, IRAK4 (Homo sapiens, UniProt Q9NWZ3)
T4 sequence (Q9NWZ3 1-460): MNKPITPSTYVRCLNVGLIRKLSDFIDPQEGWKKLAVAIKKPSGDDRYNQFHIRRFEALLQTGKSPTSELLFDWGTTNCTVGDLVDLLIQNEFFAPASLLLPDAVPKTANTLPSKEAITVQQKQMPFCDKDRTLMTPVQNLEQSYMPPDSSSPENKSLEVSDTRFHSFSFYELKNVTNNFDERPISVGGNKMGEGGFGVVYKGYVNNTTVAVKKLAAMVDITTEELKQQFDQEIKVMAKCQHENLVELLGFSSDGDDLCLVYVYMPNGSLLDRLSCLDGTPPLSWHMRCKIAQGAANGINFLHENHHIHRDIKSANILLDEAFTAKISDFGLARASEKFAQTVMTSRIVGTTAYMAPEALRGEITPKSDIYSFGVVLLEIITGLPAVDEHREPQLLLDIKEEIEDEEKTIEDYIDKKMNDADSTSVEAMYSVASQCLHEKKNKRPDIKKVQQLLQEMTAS

CDK2-Cyclin A = CDK2-Cyclin A (Homo sapiens, UniProt P24941)
PKCγ = PKCγ (Homo sapiens, UniProt P05129)

EPH-A4, sequence (P54764 20-986, species assumed): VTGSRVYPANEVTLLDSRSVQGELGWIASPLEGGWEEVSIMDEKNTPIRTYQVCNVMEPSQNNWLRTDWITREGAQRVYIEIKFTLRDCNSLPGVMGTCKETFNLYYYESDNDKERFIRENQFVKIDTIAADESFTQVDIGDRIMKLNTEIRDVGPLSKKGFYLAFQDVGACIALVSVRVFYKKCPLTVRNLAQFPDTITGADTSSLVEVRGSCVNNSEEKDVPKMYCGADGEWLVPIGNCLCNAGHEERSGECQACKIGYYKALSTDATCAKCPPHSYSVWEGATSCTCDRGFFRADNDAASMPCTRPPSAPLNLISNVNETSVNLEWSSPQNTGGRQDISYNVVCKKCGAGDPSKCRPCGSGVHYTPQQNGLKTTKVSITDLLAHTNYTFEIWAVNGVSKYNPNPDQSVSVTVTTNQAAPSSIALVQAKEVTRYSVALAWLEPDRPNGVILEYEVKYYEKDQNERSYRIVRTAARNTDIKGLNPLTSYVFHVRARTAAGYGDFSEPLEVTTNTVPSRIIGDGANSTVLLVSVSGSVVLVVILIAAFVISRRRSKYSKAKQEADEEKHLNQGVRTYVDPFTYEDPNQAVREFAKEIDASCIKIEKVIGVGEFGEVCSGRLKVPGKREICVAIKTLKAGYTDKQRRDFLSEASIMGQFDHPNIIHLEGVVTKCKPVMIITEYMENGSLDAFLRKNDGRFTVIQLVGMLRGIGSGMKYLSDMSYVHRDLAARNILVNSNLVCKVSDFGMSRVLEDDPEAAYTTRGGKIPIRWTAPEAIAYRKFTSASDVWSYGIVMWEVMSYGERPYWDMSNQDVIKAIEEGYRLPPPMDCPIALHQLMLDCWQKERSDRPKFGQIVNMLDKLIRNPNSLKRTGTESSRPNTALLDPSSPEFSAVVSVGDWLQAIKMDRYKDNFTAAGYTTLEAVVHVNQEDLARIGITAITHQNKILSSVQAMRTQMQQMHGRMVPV

With `NCCCC[C@H](NC(=O)[C@H](CC(=O)O)NC(=O)[C@H](CC(=O)O)NC(=O)[C@H](CC(=O)O)NC(=O)[C@H](CC(=O)O)NC(=O)[C@H](CC(=O)O)NC(=O)[C@@H](CC(=O)O)NC(=O)CCCCCCCn1cnc2c(Br)c(Br)c(Br)c(Br)c21)C(=O)O` [TBBI-OcA-(D-Asp)-(L-Asp)5-(L-Lys)-OH] (X1-[dD]DDDDDK-OH) the remaining activity at 1 µM (IKKb) was 55%, the remaining activity at 1 µM (PKCz) was 105% and the remaining activity at 1 µM (EPH-A4) was 117%. The remaining activity at 1 µM (DYRK3) was 30%, the remaining activity at 1 µM (IRAK4) was 118% and the remaining activity at 1 µM (CDK2-Cyclin A) was 64%. It also gave a remaining activity at 1 µM (PKCγ) of 106%.
